# From paper PMC9458440, “Cryo-EM structure of the Smc5/6 holo-complex” (Nucleic Acids Research, 2022)
# T1: Smc6 (Walker B mutant E1048Q), subunit of the S. cerevisiae Smc5/6 holo-complex (S. cerevisiae, UniProt Q12749 1-1114, E1048Q)
# T1 construct: Smc6, Saccharomyces cerevisiae; the model holds amino acids 74-213, 215-290, 292-370, 387-431, 436-805, 814-919, 922-1104; The complex was crosslinked with BS3; also called ν-SMC; source: recombinant, expressed in insect cells, purified as holo-complex (Superose 6 SEC), BS3-crosslinked
# T1 sequence: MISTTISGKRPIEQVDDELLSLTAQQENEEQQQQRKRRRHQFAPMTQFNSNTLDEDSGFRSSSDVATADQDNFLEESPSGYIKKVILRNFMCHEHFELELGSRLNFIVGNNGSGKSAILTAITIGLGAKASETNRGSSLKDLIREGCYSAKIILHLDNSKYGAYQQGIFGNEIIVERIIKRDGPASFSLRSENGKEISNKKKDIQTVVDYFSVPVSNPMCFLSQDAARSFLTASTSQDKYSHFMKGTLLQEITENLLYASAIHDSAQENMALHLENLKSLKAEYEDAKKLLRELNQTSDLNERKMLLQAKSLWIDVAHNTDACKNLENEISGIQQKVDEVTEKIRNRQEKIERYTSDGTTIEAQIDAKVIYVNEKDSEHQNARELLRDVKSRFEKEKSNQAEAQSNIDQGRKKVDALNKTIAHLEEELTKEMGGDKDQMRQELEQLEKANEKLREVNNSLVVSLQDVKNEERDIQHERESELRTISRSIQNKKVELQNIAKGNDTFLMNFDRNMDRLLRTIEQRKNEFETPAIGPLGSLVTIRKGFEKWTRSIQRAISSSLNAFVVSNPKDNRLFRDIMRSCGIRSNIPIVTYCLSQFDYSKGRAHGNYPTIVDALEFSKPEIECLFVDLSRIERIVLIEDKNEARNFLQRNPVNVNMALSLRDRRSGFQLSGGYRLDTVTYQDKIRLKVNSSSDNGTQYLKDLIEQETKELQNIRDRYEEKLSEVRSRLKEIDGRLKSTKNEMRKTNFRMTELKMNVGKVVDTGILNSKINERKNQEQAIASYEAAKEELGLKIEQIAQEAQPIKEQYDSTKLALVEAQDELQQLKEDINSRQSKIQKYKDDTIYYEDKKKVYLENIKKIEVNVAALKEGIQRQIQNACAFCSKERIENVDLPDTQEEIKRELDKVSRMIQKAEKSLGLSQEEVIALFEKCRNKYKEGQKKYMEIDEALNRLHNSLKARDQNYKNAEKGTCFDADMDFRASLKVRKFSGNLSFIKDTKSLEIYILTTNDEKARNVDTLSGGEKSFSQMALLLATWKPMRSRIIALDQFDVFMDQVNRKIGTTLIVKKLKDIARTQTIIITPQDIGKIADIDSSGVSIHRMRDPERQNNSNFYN
# B1: Smc5 (Walker B mutant E1015Q), subunit of the S. cerevisiae Smc5/6 holo-complex (natural protein)
# chain: MTSLIDLGRYVERTHHGEDTEPRSKRVKIAKPDLSSFQPGSIIKIRLQDFVTYTLTEFNLSPSLNMIIGPNGSGKSTFVCAVCLGLAGKPEYIGRSKKVEDFIKNGQDVSKIEITLKNSPNVTDIEYIDARDETIKITRIITRSKRRSDYLINDYQVSESVVKTLVAQLNIQLDNLCQFLSQERVEEFARLKSVKLLVETIRSIDASLLDVLDELRELQGNEQSLQKDLDFKKAKIVHLRQESDKLRKSVESLRDFQNKKGEIELHSQLLPYVKVKDHKEKLNIYKEEYERAKANLRAILKDKKPFANTKKTLENQVEELTEKCSLKTDEFLKAKEKINEIFEKLNTIRDEVIKKKNQNEYYRGRTKKLQATIISTKEDFLRSQEILAQTHLPEKSVFEDIDIKRKEIINKEGEIRDLISEIDAKANAINHEMRSIQRQAESKTKSLTTTDKIGILNQDQDLKEVRDAVLMVREHPEMKDKILEPPIMTVSAINAQFAAYLAQCVDYNTSKALTVVDSDSYKLFANPILDKFKVNLRELSSADTTPPVPAETVRDLGFEGYLSDFITGDKRVMKMLCQTSKIHTIPVSRRELTPAQIKKLITPRPNGKILFKRIIHGNRLVDIKQSAYGSKQVFPTDVSIKQTNFYQGSIMSNEQKIRIENEIINLKNEYNDRKSTLDALSNQKSGYRHELSELASKNDDINREAHQLNEIRKKYTMRKSTIETLREKLDQLKREARKDVSQKIKDIDDQIQQLLLKQRHLLSKMASSMKSLKNCQKELISTQILQFEAQNMDVSMNDVIGFFNEREADLKSQYEDKKKFVKEMRDTPEFQSWMREIRSYDQDTKEKLNKVAEKYEEEGNFNLSFVQDVLDKLESEIAMVNHDESAVTILDQVTAELRELEHTVPQQSKDLETIKAKLKEDHAVLEPKLDDIVSKISARFARLFNNVGSAGAVRLEKPKDYAEWKIEIMVKFRDNAPLKKLDSHTQSGGERAVSTVLYMIALQEFTSAPFRVVDQINQGMDSRNERIVHKAMVENACAENTSQYFLITPKLLTGLHYHEKMRIHCVMAGSWIPNPSEDPKMIHFGETSNYSFD
# notes: Smc5, Saccharomyces cerevisiae; the model holds amino acids 35-390, 394-882, 884-1068; The complex was crosslinked with BS3; also called κ-SMC; source: recombinant, expressed in insect cells, purified as holo-complex (Superose 6 SEC), BS3-crosslinked
# B2: Nse4 with HaloTag, kleisin subunit of the S. cerevisiae Smc5/6 holo-complex (natural protein)
# chain: MSSTVISRKRRNSTVTEPDSSGETRKQKKSRSDEKSSSSKDGDPQLEFKVLQGYRDLESEMHKGRAQVTRTGDIGVAMDNLNAVDSLFNKVIGIKNNGLFAHDARAMVSISELAQISVRNLKFDDSRSMVNLENIVNSLKRYMLKEHFKLNNIAENRNDLTLAADEQSAADQQEESDGDIDRTPDDNHTDKATSSFKATSMRHSYLQQFSHYNEFSQFNWFRIGALYNTISKNAPITDHLMGPLSIEKKPRVLTQRRRNNDQVGEKITAEKITQHSLNSTQQETTPEQVKKCFKKLSKKLGPEGSINLFKFIIDPNSFSRSIENLFYTSFLIKEGKLLMEHDEEGLPTIKIKQSISHTDSRSKEIERQRRRAAHQNHIIFQMDMPTWRKLIKKYNITSPFLD
# notes: Nse4, Saccharomyces cerevisiae; the model holds amino acids 40-124, 184-202, 213-245, 283-402; Density of the HaloTag attached to Nse4 was removed by particle subtraction, so the tag was on the protein on the grid; its end is told only for the yeast strain (C-terminal), not for the recombinant protein; source: recombinant, expressed in insect cells, purified as holo-complex (Superose 6 SEC), …
# What was measured:
# Assay in all cases: cryo-EM structure; BS3-crosslinked six-subunit holo-complex, apo / non-liganded; fractions from Superose 6 diluted to 20 mM HEPES.NaOH pH 7.5, 50 mM NaCl, 0.5 mM TCEP, 0.1 mg/ml; maps at 10.8 Å (holo-complex), 8.53 Å (hinge/arm) and 6.5 Å (head-only); pseudo-atomic model built from homology and AlphaFold models
# Settings in all cases: both partners purified
# [1] = molecular target: T1, Smc6 (Walker B mutant E1048Q), subunit …
# [2] = molecular target: B1
# [3] = molecular target: B2
Binder,binding result [1],binding result [2],binding result [3]
B1,binds,,
"Nse1, subunit of the S. cerevisiae Smc5/6 holo-complex (natural protein, Nse1, Saccharomyces cerevisiae; the model holds amino acids 11-336; also called KITE subunit; source: recombinant, expressed in insect cells, purified as holo-complex (Superose 6 SEC), BS3-crosslinked) MEVHEEQVSAPVTGDATAKYLLQYILSARGICHENALILALMRLETDASTLNTEWSIQQWVDKLNDYINAINVKLNLLGYKIIRINHGIGRNAVTLKAKQNFESFEDNTAIRAHNNDYAVLQSIVLPESNRFFVYVNLASTEETKLATRFNQNEIEFMKWAIEQFMISGETIVEGPALETSIIVKEVNRILVAATGDSNLAKWRKFSTFTVGSTNLFQFQELTATDIEDLLLRLCELKWFYRTQEGKFGIDLRCIAELEEYLTSMYNLNTCQNCHKLAIQGVRCGNESCREENEETGENSLSQIWHVDCFKHYITHVSKNCDRCGSSLITEGVYVI",,binds,binds
B2,binds,binds,
"Nse2 (Mms21), subunit of the S. cerevisiae Smc5/6 holo-complex (natural protein, Nse2 (Mms21), Saccharomyces cerevisiae; the model holds amino acids 1-267; source: recombinant, expressed in insect cells, purified as holo-complex (Superose 6 SEC), BS3-crosslinked) MALNDNPIPKSVPLHPKSGKYFHNLHARDLSNIYQQCYKQIDETINQLVDSTSPSTIGIEEQVADITSTYKLLSTYESESNSFDEHIKDLKKNFKQSSDACPQIDLSTWDKYRTGELTAPKLSELYLNMPTPEPATMVNNTDTLKILKVLPYIWNDPTCVIPDLQNPADEDDLQIEGGKIELTCPITCKPYEAPLISRKCNHVFDRDGIQNYLQGYTTRDCPQAACSQVVSMRDFVRDPIMELRCKIAKMKESQEQDKRSSQAIDVL",binds,binds,
